Legend:
Experiment in all cases: Crosslinking/co-immunoprecipitation/mass spectrometry (TMT quantitative proteomics) to identify irisin receptors
Assay type in all cases: binding
[1] = target: T1, MLO-Y4 cell surface proteins (Mus musculus, UniProt P62737); conditions: co-precipitated protein Acta2 (ACTA_MOUSE)
T1 construct: endogenous in cells; host or cells: MLO-Y4
Method in brief: (§1)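 Relative protein abundance came from 6-plex TMT MS3 quantitation on an Orbitrap Fusion Lumos, after in-gel trypsin digestion of Coomassie-stained SDS-PAGE lanes. Input was a Ni-NTA pulldown (250 mM imidazole elution) of lysates from murine MLO-Y4 cells. These cells were treated on ice with His-tagged irisin or adipsin (10 nM, 20 min) in serum-free medium, then crosslinked with 1.5 mM DTSSP for 30 min.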

[2] = target: T2, MLO-Y4 cell surface proteins (Mus musculus, UniProt P35762); conditions: TMT ratio, Cd81 CD81 antigen
T2 construct: endogenous in cells; host or cells: MLO-Y4
T2 sequence (P35762 1-236): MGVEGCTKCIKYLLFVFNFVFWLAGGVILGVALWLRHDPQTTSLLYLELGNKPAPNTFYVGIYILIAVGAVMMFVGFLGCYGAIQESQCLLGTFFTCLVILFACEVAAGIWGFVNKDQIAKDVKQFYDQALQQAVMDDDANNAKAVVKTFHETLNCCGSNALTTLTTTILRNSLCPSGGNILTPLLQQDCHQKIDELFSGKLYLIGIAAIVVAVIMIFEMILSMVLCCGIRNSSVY
Method in brief: as §1

[3] = target: T3, MLO-Y4 cell surface proteins (Mus musculus, UniProt Q8VHN7); conditions: co-precipitated protein Gpr98 (GPR98_MOUSE)
T3 construct: endogenous in cells; host or cells: MLO-Y4
Method in brief: as §1

[4] = target: T4, MLO-Y4 cell surface proteins (Mus musculus, UniProt Q8VCI5); conditions: co-precipitated protein Pex19 (PEX19_MOUSE)
T4 construct: endogenous in cells; host or cells: MLO-Y4
T4 sequence (Q8VCI5 1-299): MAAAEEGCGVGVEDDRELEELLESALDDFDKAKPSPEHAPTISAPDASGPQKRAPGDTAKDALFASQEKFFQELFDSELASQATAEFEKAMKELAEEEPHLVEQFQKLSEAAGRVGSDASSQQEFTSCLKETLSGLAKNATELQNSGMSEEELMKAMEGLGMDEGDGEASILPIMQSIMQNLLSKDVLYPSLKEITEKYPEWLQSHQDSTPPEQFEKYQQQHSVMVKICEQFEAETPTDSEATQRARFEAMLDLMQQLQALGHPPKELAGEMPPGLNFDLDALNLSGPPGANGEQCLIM
Method in brief: as §1

B1: irisin: secreted cleaved form of FNDC5; recombinant human/mouse irisin with C-terminal his tag produced in HEK293 cells (protein)
chain: DSPSAPVNVTVRHLKANSAVVSWDVLEDEVVIGFAISQQKKDVRMLRFIQEVNTTTRSCALWDLEEDTEYIVHVQAISIQGQSPASEPVLFKTPREAEKMASKNKDEVTMKE
modifications: left off: small tags and cut ends
notes: secreted cleaved form of FNDC5; recombinant human/mouse irisin with C-terminal his tag produced in HEK293 cells
Question: How did the TMT signal-to-noise ratio [1] turn out when B1 was run?
Answer: 107.601

Question: What about the “irisin/adipsin TMT signal-to-noise ratio” value [1] of the same molecule?
Answer: 0.298

Question: What about the irsin/adipsin [2] of the same molecule?
Answer: 4.05

Question: What about the TMT signal-to-noise ratio [3] of the same molecule?
Answer: 249.388

Question: What about the “irisin/adipsin TMT signal-to-noise ratio” value [3] of the same molecule?
Answer: 0.403

Question: What about the TMT signal-to-noise ratio [4] of the same molecule?
Answer: 23.3696

Question: What about the “irisin/adipsin TMT signal-to-noise ratio” value [4] of the same molecule?
Answer: 0.386

— patent US20210063414A1, “METHODS FOR PREVENTING AND/OR TREATING BONE LOSS CONDITIONS BY MODULATING IRISIN” (Dana-Farber Cancer Institute, Inc., priority 2018, published 2021)
